Data published in patent US8936806B2, “Periostin induces proliferation of cardiomyocytes and promotes cardiac regeneration” (Children's Medical Center Corporation, priority 2007, dated 2015).

Assays:
[1] = tested on: primary neonatal rat ventricular cardiomyocytes; assay: DNA synthesis, mitosis and cytokinesis in primary neonatal rat ventricular cardiomyocytes; type: cell-based
From the text: (§1) Primary neonatal rat ventricular cardiomyocytes were isolated using the Neomyts kit (Cellutron, Highland Park, N.J.), seeded at a density of 10^5 cells/cm^2 onto gelatin-coated cover slips, stimulated for 3 days, and labeled with BrdU for the terminal 2 days. Primary adult ventricular cardiomyocytes were isolated from male (300 gm) Wistar rats (Charles River Laboratories) and maintained as described (Engel, F. B. et al. p38 MAP kinase inhibition enables proliferation of adult mammalian cardiomyocytes. Genes Dev 19, 1175-87 (2005)). Adult cardiomyocytes were stimulated daily for 9 days and labeled with 30 μM BrdU for the terminal 3 days. Cardiomyocytes were stimulated with periostin (500 ng/mL) and FGF (100 ng/mL). Inhibiting antibodies were added at a concentration of 10 μg/mL, cRGD at 10 μM, U0126 at 10 μM, PD98059 at 1 μM, LY294002 at 10 μM, and Wortmannin at 0.1 μM 30 min prior to stimulation. The vehicle used to dissolve factors or chemicals was added to unstimulated samples, which were then processed together with the test samples.
(§2) DNA-synthesis was analyzed by visualization of BrdU uptake and cytokinesis was determined by detection of the cleavage furrow and the midbody with an antibody against aurora B kinase as described (Engel, F. B. et al. p38 MAP kinase inhibition enables proliferation of adult mammalian cardiomyocytes. Genes Dev 19, 1175-87 (2005)). Signals were visualized with secondary antibodies conjugated to Alexa 488, Alexa 546, Alexa 594, and Alexa 647 (Invitrogen). Nuclei were visualized with 4′,6′-diamidino-2-phenylindole (DAPI, Invitrogen). For image acquisition, the value for γ was set at 1 and the lookup table settings were linear.

[2] = tested on: primary neonatal rat ventricular cardiomyocytes; assay: Cell cycle markers (Ki-67, phosphorylated Rb, cyclin A) in neonatal cardiomyocytes; type: cell-based
From the text: as §1, §2

ERK1/2 and Akt = settings: neonatal cardiomyocytes
Experimental: Primary cardiomyocytes or heart tissue were lysed in 20 mM Tris (pH 7.5), 150 mM NaCl, 10 mM EDTA, 1 mM EGTA, 1% Triton X-100, […], 1 mM β-glycerol phosphate, 1 mM Na3VO4, 1 μg/ml, leupeptin, 1% NP-40 and 0.24 mg/mL Pefabloc SC (Roche) at 4° C. Protein concentrations were determined using the BCA assay (Pierce, Rockford, Ill.). Forty μg of cell lysate was separated on 10% SDS-polyacrylamide gels, blotted onto nitrocellulose membranes (Amersham, Piscataway, N. J.), which were then incubated with antibodies according to manufacturer's directions, followed by visualization with ECL reagent (Amersham).

[3] = tested on: atrial natriuretic factor (ANF); assay: Transcription of atrial natriuretic factor by RT-PCR in neonatal cardiomyocytes; type: cell-based, rat; settings: 72 hr stimulation
Experimental: RNA was prepared using Trizol reagent (Invitrogen) from neonatal rat ventricular cardiomyocytes after 72 hr of stimulation. Complementary DNA was synthesized from 2 μg RNA with the SuperScriptIII kit (Invitrogen) using oligo-dT primers. One μL cDNA was used as template for 20 μL PCR-reactions (95° C. for 2 min, 30 cycles of 95° C. for 2 min, 55° C. for 2 min, 72° C. for 5 min, followed by 72° C. for 10 min). Oligonucleotide primers used for detection of ANF were F: 5′-[…]-3′ (Seq ID No. 2), R: 5′-[…]-3′ (Seq ID No. 3), β-actin were F: 5′-[…]-3′ (Seq ID No. 4), R: 5′-[…]-3′ (Seq ID No. 5), […] were F: 5′-[…]-3′ (Seq ID No. 6), R: 5′-[…]-3′ (Seq ID No. 7); SMA were F: 5′-[…]-3′ (Seq ID No. 8), R: 5′-[…]-3′ (Seq ID No. 9); SERCA2 were F: 5′-[…]-3′ (Seq ID No. 10), R: 5′-[…]-3′ (Seq ID No. 11), and for GAPDH: 5′-[…]-3′ (Seq ID No. 12), R: 5′-[…]-3′ (Seq ID No. 13).

B1: periostin: Recombinant periostin, purified from HEK293 cells expressing the full-length human cDNA; secreted protein of 834 amino acids (Seq ID. No. 1) (protein, listed as Homo sapiens)
chain: MIPFLPMFSLLLLLIVNPINANNHYDKILAHSRIRGRDQGPNVCALQQILGTKKKYFSTCKNWYKKSICGQKTTVLYECCPGYMRMEGMKGCPAVLPIDHVYGTLGIVGATTTQRYSDASKLREEIEGKGSFTYFAPSNEAWDNLDSDIRRGLESNVNVELLNALHSHMINKRMLTKDLKNGMIIPSMYNNLGLFINHYPNGVVTVNCARIIHGNQIATNGVVHVIDRVLTQIGTSIQDFIEAEDDLSSFRAAAITSDILEALGRDGHFTLFAPTNEAFEKLPRGVLERFMGDKVASEALMKYHILNTLQCSESIMGGAVFETLEGNTIEIGCDGDSITVNGIKMVNKKDIVTNNGVIHLIDQVLIPDSAKQVIELAGKQQTTFTDLVAQLGLASALRPDGEYTLLAPVNNAFSDDTLSMVQRLLKLILQNHILKVKVGLNELYNGQILETIGGKQLRVFVYRTAVCIENSCMEKGSKQGRNGAIHIFREIIKPAEKSLHEKLKQDKRFSTFLSLLEAADLKELLTQPGDWTLFVPTNDAFKGMTSEEKEILIRDKNALQNIILYHLTPGVFIGKGFEPGVTNILKTTQGSKIFLKEVNDTLLVNELKSKESDIMTTNGVIHVVDKLLYPADTPVGNDQLLEILNKLIKYIQIKFVRGSTFKEIPVTVYTTKIITKVVEPKIKVIEGSLQPIIKTEGPTLTKVKIEGEPEFRLIKEGETITEVIHGEPIIKKYTKIIDGVPVEITEKETREERIITGPEIKYTRISTGGGETEETLKKLLQEEVTKVTKFIEGGDGHLFEDEEIKRLLQGDTPVRKLQANKKVQGSRRRLREGRSQ
[1]; 500 ng/mL, 3 days
  DNA synthesis, of cardiomyocytes: 35±5%
  increase of DNA synthesis over non-stimulated cardiomyocytes: 5 fold
[1]; 3 days
  increase of cardiomyocyte mitoses: 12 fold
  increase of cytokineses: 8 fold
[1]; FIG. 2d, 2e
  induction of cardiomyocyte DNA synthesis: stimulated DNA synthesis as effectively as FGF
[1]; increasing concentrations of periostin (FIG. 2a), read-out: half-maximal stimulation of cardiomyocyte DNA synthesis
  EC50: 155 ± 25 nM
[2]
  increase of cardiomyocytes expressing cyclin A: 11 fold
  increase of cardiomyocytes with phosphorylated Rb: 12 fold
  increase of proliferating cardiomyocytes (Ki-67): 4 fold
ERK1/2 and Akt
  activation of ERK1/2 and Akt: activated
[3]
  transcription of atrial natriuretic factor (ANF): did not induce
